Laboratory results reported in patent CN115043938A (DUAN LIANGWEI; JIANG ZHIHUA; WANG HUI, dated 2022).

Target: SARS-CoV-2 Beta S蛋白 (假病毒) (SARS-CoV-2 Beta, UniProt P0DTC2 14-1273)
Test: cell-based or functional assay

| Binder | 假病毒中和 IC50 |
| --- | --- |
| 抗体Amb1 (antibody, V domains shown) VH: EVQLLESGTEVKKPGSSVKVSCKASGGTFSSYAISWVRQAPGQGLEWMGGIIPILGIANYAQKFQGRVTITADKSTSTAYMELSSLRSEDTAVYYCARERGYSGYGAAYYFDYWGQGTLVTVSS VL: QSVLTQAPSVSGAPGQSVTISCTGSSSNIGAGYDVHWYQQLPGTAPKLLIYGNNNRPSGVPDRFSGSKSGTSASLAITGLQAEDEADYYCQSYDSSLSKGVFGGGTKLTVL | 0.0266 µg/mL |
| 抗体Amb2 (antibody, V domains shown) VH: EVQLLESGPGLVKPSETLSLTCTVSGGSISNSSYYWGWIRQPPGKGLEWIGSIYYSGSTYYNPSLKSRVTISVDTSKNQFSLKLSSVTAADTGVYYCASWLYGDPISFDYWGQGTLVTVSS VL: not shown | 0.0452 µg/mL |
